In patent publication US20210032351A1 (XDCEXPLORER SHANGHAI, published 2021):
Numbering of substitutions follows the chain as printed. Several values for one entry are separate records, joined by “and”; a condition that tells them apart may be missing. Equal values may be shown once. Ends that are not written are not given here. * marks the point of attachment. Biotin = O=C1N[C@H]2[C@H](CS[C@H]2CCCCC(=O)*)N1

Assays:
[1] = target: human EGFRvIII protein, full length, on transfected cells (human) (UniProt P00533); assay: FACS, U87MG-hEGFRvIII 1F9 cells
[2] = target: human EGFRvIII protein, full length, on transfected cells (human) (UniProt P00533); assay: FACS, U87MG-hEGFRvIII 1B3 cells
[3] = target: human EGFRvIII protein, full length, on transfected cells (human) (UniProt P00533); assay: FACS, CHO-K1-hEGFRvIII 1E3 cells
[4] = target: human EGFRvIII protein, full length, on transfected cells (human) (UniProt P00533); assay: FACS, CHO-K1-hEGFRvIII 2D11 cells
[5] = target: human EGFRvIII protein, full length, on transfected cells (human) (UniProt P00533); assay: FACS, 293F-hEGFRvIII 1F3 cells
[6] = target: human EGFRvIII protein, full length, on transfected cells (human) (UniProt P00533); assay: FACS, U87MG-hEGFRvIII 2C3 cells
[7] = target: human EGFRvIII protein, full length, on transfected cells (human) (UniProt P00533); assay: FACS, 293F-hEGFRvIII 1D11 cells
[8] = target: human EGFRvIII protein, full length, on transfected cells (human) (UniProt P00533); assay: FACS, U87MG-hEGFRvIII 2G2 cells
[9] = target: human EGFRvIII protein, full length, on transfected cells (human) (UniProt P00533); assay: FACS, CHO-K1-hEGFRvIII 1G10 cells
[10] = target: human EGFRvIII protein, full length, on transfected cells (human) (UniProt P00533); assay: FACS, U87MG-hEGFRvIII 2C6 cells
[11] = target: human EGFRvIII protein, full length, on transfected cells (human) (UniProt P00533); assay: FACS, CHO-K1-hEGFRvIII 2B3 cells
[12] = target: human EGFRvIII protein, full length, on transfected cells (human) (UniProt P00533); assay: FACS, CHO-K1-hEGFRvIII 1E10 cells
[13] = target: human EGFRvIII protein, full length, on transfected cells (human) (UniProt P00533); assay: FACS, U87MG-hEGFRvIII 1D1 cells
[14] = target: human EGFRvIII protein, full length, on transfected cells (human) (UniProt P00533); assay: FACS, CHO-K1-hEGFRvIII 1D9 cells
[15] = target: human EGFRvIII protein, full length, on transfected cells (human) (UniProt P00533); assay: FACS, 293F-hEGFRvIII 1C10 cells
[16] = target: wild-type EGFR protein on the surfaces of A431 tumor cells and normal human primary hepatocytes (human) (UniProt P00533); assay: FACS, A431 tumor cells
[17] = target: wild-type EGFR protein on the surfaces of A431 tumor cells and normal human primary hepatocytes (human) (UniProt P00533); assay: FACS, normal human primary hepatocytes
pep14 = target: T1, pep14 (cysteine pairing not given here); assay: peptide dot matrix ELISA
T1 peptide: GSCVRACGADSYEMEEK(Biotin)

pep15 = target: T2, pep15 (cysteine pairing not given here); assay: peptide dot matrix ELISA
T2 peptide: SCVRACGADSYEMEEDK(Biotin)

pep05 = target: T3, pep05 (cysteine pairing not given here); assay: peptide dot matrix ELISA
T3 peptide: KGNYVVTDHGSCVRACK(Biotin)

pep19 = target: T4, pep19; assay: peptide dot matrix ELISA
T4 sequence (peptide, C-terminal K(Biotin)): ACGADSYEMEEDGVRKK

[18] = target: T5, human EGFRvIII-hFc protein (human, UniProt P00533 25-645); assay: ELISA, coated EGFRvIII-hFc, antibody 0.1 nM
T5 construct: extracellular domain; made in HEK293 cells, purified on protein A; also called immunogen A; hFc-tagged EGFRvIII protein; not shown: human IgG Fc fragment (hFc) of the pCpC vector
Procedure: (§1) The purified immunogen A (EGFRvIII-hFc) obtained in example 1 (for the preparation method, see step (I) in example 1) is diluted with PBS to a final concentration of 1.0 μg/mL, and then added to a 96-well ELISA plate at 100 μl/well. The plate is sealed with a plastic film and incubated at 4° C. overnight. The next day, the plate is washed twice with a plate washing solution [PBS+0.01% (v/v) Tween20], and added with a blocking solution [PBS+0.01% (v/v) Tween20+1% (w/w) BSA] for blocking 2 hours at room temperature. The blocking solution is discarded, and the purified EGFRvIII antibody obtained in example 2 is added at 100 μl/well. The plate is incubated for 2 hours at 37° C., and then washed 3 times with the plate washing solution [PBS+0.01% (v/v) Tween20]. The plate is added with an HRP (horseradish peroxidase) labeled secondary antibody (purchased from Sigma), incubated at 37° C. for 2 hours, and then washed 3 times with the plate washing solution [PBS+0.01% (v/v) Tween20]. The plate is added with 100 μl of TMB substrate/well, incubated for 30 minutes at room temperature, and then added with 100 μl of stopping solution (1.0N HCl)/well. A450 nm value is read using an ELISA plate reader (SpectraMax 384plus, purchased from Molecular Device), and the results are shown in FIG. 6 and table 10.

[19] = target: T5, human EGFRvIII-hFc protein; assay: ELISA, coated EGFRvIII-hFc, antibody 1 nM
Procedure: as §1

[20] = target: T5, human EGFRvIII-hFc protein; assay: ELISA, coated EGFRvIII-hFc, antibody 10 nM
Procedure: as §1

[21] = target: T5, human EGFRvIII-hFc protein; assay: ELISA, coated EGFRvIII-hFc, antibody 0.01 nM
Procedure: as §1

[22] = target: T5, human EGFRvIII-hFc protein; assay: ELISA, plate coated with human EGFRvIII-hFc, HRP secondary antibody, absorbance at 450 nm
Procedure: as §1

[23] = target: T5, human EGFRvIII-hFc protein; assay: ELISA, coated EGFRvIII-hFc, antibody 0.001 nM
Procedure: as §1

[24] = target: T5, human EGFRvIII-hFc protein; assay: ELISA, coated EGFRvIII-hFc, antibody 100 nM
Procedure: as §1

[25] = target: T5, human EGFRvIII-hFc protein; assay: ELISA, coated EGFRvIII-hFc, antibody 0.0001 nM
Procedure: as §1

[26] = target: T6, human EGFRvIII protein, full length, on transfected cells (human, UniProt P00533 25-1210); assay: FACS on CHOK-EGFRvIII cells
T6 construct: whole, on cells; stably transfected CHO-K1, U87MG and HEK293(F) cells; also called hEGFRvIII; mutant EGFRvIII protein

pep31 = target: T7, pep31 (cysteine pairing not given here); assay: peptide dot matrix ELISA
T7 peptide: GVRKCKKCEGPCRKVCK(Biotin)

pep35 = target: T8, pep35 (cysteine pairing not given here); assay: peptide dot matrix ELISA
T8 peptide: CKKCEGPCRKVCNGIGK(Biotin)

pep08 = target: T9, pep08 (cysteine pairing not given here); assay: peptide dot matrix ELISA
T9 peptide: YVVTDHGSCVRACGADK(Biotin)

pep32 = target: T10, pep32 (cysteine pairing not given here); assay: peptide dot matrix ELISA
T10 peptide: VRKCKKCEGPCRKVCNK(Biotin)

pep17 = target: T11, pep17; assay: peptide dot matrix ELISA
T11 peptide: VRACGADSYEMEEDGVK(Biotin)

pep02 = target: T12, pep02; assay: peptide dot matrix ELISA
T12 peptide: EEKKGNYVVTDHGSCVK(Biotin)

pep11 = target: T13, pep11 (cysteine pairing not given here); assay: peptide dot matrix ELISA
T13 peptide: TDHGSCVRACGADSYEK(Biotin)

pep23 = target: T14, pep23 (cysteine pairing not given here); assay: peptide dot matrix ELISA
T14 peptide: DSYEMEEDGVRKCKKCK(Biotin)

pep16 = target: T15, pep16 (cysteine pairing not given here); assay: peptide dot matrix ELISA
T15 peptide: CVRACGADSYEMEEDGK(Biotin)

pep18 = target: T16, pep18; assay: peptide dot matrix ELISA
T16 peptide: RACGADSYEMEEDGVRK(Biotin)

pep33 = target: T17, pep33 (cysteine pairing not given here); assay: peptide dot matrix ELISA
T17 peptide: RKCKKCEGPCRKVCNGK(Biotin)

pep24 = target: T18, pep24 (cysteine pairing not given here); assay: peptide dot matrix ELISA
T18 peptide: SYEMEEDGVRKCKKCEK(Biotin)

pep34 = target: T19, pep34 (cysteine pairing not given here); assay: peptide dot matrix ELISA
T19 peptide: KCKKCEGPCRKVCNGIK(Biotin)

pep28 = target: T20, pep28 (cysteine pairing not given here); assay: peptide dot matrix ELISA
T20 peptide: EEDGVRKCKKCEGPCRK(Biotin)

known EGFRvIII antibody (purchased from Absoluteantibody, #Ab00184-1.1)
cell mean fluorescence intensity [1]: 68 | cell mean fluorescence intensity [2]: 66.9 | cell mean fluorescence intensity [3]: 42 | cell mean fluorescence intensity [4]: 77 | cell mean fluorescence intensity [5]: 395 | cell mean fluorescence intensity [6]: 82.7 | cell mean fluorescence intensity [7]: 388 | cell mean fluorescence intensity [8]: 182 | cell mean fluorescence intensity [9]: 563 | cell mean fluorescence intensity [10]: 178 | cell mean fluorescence intensity [11]: 109 | cell mean fluorescence intensity [12]: 92 | cell mean fluorescence intensity [13]: 96.4 | cell mean fluorescence intensity [14]: 457 | cell mean fluorescence intensity [15]: 458

Negative control hIgG (antibody)
mean fluorescence intensity (MFI) [16]: 388 MFI | mean fluorescence intensity (MFI) [17]: 219 MFI

IgG subtype control (antibody)
cell mean fluorescence intensity [1]: 1.7 | cell mean fluorescence intensity [2]: 2.3 | cell mean fluorescence intensity [3]: 2.4 | cell mean fluorescence intensity [4]: 1.8 | cell mean fluorescence intensity [5]: 4.1 | cell mean fluorescence intensity [7]: 3.6 | cell mean fluorescence intensity [8]: 1.8 | cell mean fluorescence intensity [9]: 2.4 | cell mean fluorescence intensity [10]: 1.8 | cell mean fluorescence intensity [13]: 3 | cell mean fluorescence intensity [15]: 4.3

B1: Chimeric antibody 63A10 (antibody, V domains shown)
VH: QVQLQQSGAELARPGASVKMSCKASGYTFISFTMHWVKQRPGQGLEWIGYINPNSGYTKYNQKFKDKATLTAGQSSSTAYMQLSSLTSEDSAVYYCTRGGGRGFAYWGQGTLVTVSA
VL: DILMTQSPSSMSVSLGDTVTITCHASQDINSNIGWLQQKPGKSFKALIYHGTNLEDGVPSRFSGSGSGADYSLTISSLESEDFADYYCVQYAQFPFTFGSGTKLEIK
ELISA signal (pep14): 0.08 and 0.23 | ELISA signal (pep15): 0.14 and 0.11 | ELISA signal (pep05): 0.15 and 0.17 | ELISA signal (pep19): 0.11 and 0.15

B2: Murine anti-43H6 (antibody, V domains shown)
VH: INAEYAGGPGLVKPSQSLSLTCTVTDYSITSDYAWNWIRQFPGNKLEWMGYISYSGNTNYNPSLKSRISITRDTSKNQFFLQLNSVTTEDTATYYCARLGRGFAYWGQGTLVTVSA
VL: B1 VL with T20S, K42T, A46G, T52R, A69E, Q93H, F96P, S100A, I106L
notes: murine hybridoma antibody; also called 43H6A1
OD450 nm [18]: 1.39 | OD450 nm [19]: 3.86 | OD450 nm [20]: 3.87 | OD450 nm [21]: 0.25 | EC50 (read off the curve) [22]: ~0.02 nM | OD450 nm [23]: 0.11 | OD450 nm [24]: 3.85 | OD450 nm [25]: 0.09

B3: c75G7C6-4 (antibody, human IgG1, V domains shown)
VH: EVQLQQSGPELVKPGASVKIPCKASGYTFTDYNMDWVKQSHGKSLEWIGDINPNNGDTIYNQKFKGKATLTVDKSSSTAYMELRSLTSEDTAVYYCARGDYSGYYPVYYAMDYWGQGTSVTVSS
VL: ENVLTQSPAIMSASPGEKVTMTCRASSSVSSSYLHWYQQKSGASPKLWIFSTSNLAAGVPARFSGSGSGTSYSLTVSSVEAEDAATYYCQQYSGYPLTFGAGTKLELK
notes: chimeric, human IgG1 / kappa; DG of heavy chain CDR3 mutated to SG; also called DG/SG mutant
fold decrease in binding ability compared to the wild-type chimeric antibody c75G7C6 [26]: 2.5 fold

B4: Chimeric antibody 75G7 (antibody, V domains shown)
VH: B3 VH with S102D
VL: B3 VL
notes: also called c75G7C6
ELISA signal (pep31): 0.06 | ELISA signal (pep35): 0.07 | ELISA signal (pep08): 0.05 | ELISA signal (pep32): 0.06 | ELISA signal (pep17): 0.05 | ELISA signal (pep02): 0.05 | ELISA signal (pep11): 0.08 | ELISA signal (pep23): 0.05 | ELISA signal (pep16): 0.05 | ELISA signal (pep18): 0.05 | ELISA signal (pep33): 0.07 | ELISA signal (pep24): 0.05 | ELISA signal (pep34): 0.06 | ELISA signal (pep28): 0.06
